{"source": "patent US20110177065A1", "biological_target": "IL-1 receptor (human) (UniProt P14778)", "sequence (P14778 18-569)": "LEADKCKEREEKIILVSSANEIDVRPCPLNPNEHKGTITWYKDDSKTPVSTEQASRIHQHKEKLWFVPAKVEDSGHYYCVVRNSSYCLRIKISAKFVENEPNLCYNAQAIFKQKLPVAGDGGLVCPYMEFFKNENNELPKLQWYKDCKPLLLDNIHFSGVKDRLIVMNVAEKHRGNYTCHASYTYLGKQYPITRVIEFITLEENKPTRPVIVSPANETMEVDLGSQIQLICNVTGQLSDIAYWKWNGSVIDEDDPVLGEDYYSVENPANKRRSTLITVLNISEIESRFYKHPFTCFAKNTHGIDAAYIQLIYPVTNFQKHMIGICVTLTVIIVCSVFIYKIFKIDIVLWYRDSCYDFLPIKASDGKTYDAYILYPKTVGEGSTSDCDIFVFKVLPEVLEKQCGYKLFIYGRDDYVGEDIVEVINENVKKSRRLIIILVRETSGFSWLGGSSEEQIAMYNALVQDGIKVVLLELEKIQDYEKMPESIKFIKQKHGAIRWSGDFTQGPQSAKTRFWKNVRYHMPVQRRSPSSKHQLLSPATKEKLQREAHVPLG", "experiment": "cell-based or functional assay"}
{"substance": "IL-1 receptor antagonist (IL-1Ra) (from UniProt P18510 26-177) (ligand)", "values": [{"measurement": "antiviral activity of IFN-gamma (endpoint of 50% protection from viral cytopathic effect, human WISH cells)", "value": 125, "unit": "IU/ml"}, {"measurement": "level of IL-18BP in HaCat culture supernatants after IFN-gamma (ELISA)", "value": 0.35, "unit": "ng/mL"}]}
